Where no end group is shown, it is not given here.

This is an account of results in patent US6437095 (Hoffmann-La Roche, dated 2002).

This test concerns the target T1, polyionic peptide AlaCysLysLysLysLysLysLysLysLys (ACK8) (also: also used as mixed disulfide with glutathione on Cys (ACK8-SG)).
T1 construct: Synthetic peptide (Fmoc); also called ACK8-SG (mixed disulfide with glutathione)
T1 peptide: ACKKKKKKKK
Briefly: 20 µM ACE8 with the mixed disulfide ACK8-SG, 0 to 1 M NaCl, cation exchange chromatography.

Consider ACEEEEEEEE (Synthetic peptide (Fmoc)) [polyionic peptide AlaCysGluGluGluGluGluGluGluGlu (ACE8)], for which the binding result is given as “binds”.
